# Measurements published in IntAct's records for PubMed 26601939.
# B1: Syndecan-4 (Rattus norvegicus (Rat)), P34901 (parent)
# chain: MAPVCLFAPLLLLLLGGFPVAPGESIRETEVIDPQDLLEGRYFSGALPDDEDAGGLEQDSDFELSGSGDLDDTEEPRTFPEVISPLVPLDNHIPENAQPGIRVPSEPKELEENEVIPKRVPSDVGDDDVSNKVSMSSTSQGSNIFERTEVLAALIVGGVVGILFAVFLILLLVYRMKKKDEGSYDLGKKPIYKKAPTNEFYA
# B2: Syndecan-2 (Rattus norvegicus (Rat)), P34900 (parent)
# chain: MQRAWILLTLGLMACVSAETRAELTSDKDMYLDSSSIEEASGLYPIDDDDYSSASGSGAYEDKGSPDLTTSQLIPRISLTSAAPEVETMTLKTQSITPTQTESPEETDKKEFEISEAEEKQDPAVKSTDVYTEKHSDNLFKRTEVLAAVIAGGVIGFLFAIFLILLLVYRMRKKDEGSYDLGERKPSSAAYQKAPTKEFYA
# partner: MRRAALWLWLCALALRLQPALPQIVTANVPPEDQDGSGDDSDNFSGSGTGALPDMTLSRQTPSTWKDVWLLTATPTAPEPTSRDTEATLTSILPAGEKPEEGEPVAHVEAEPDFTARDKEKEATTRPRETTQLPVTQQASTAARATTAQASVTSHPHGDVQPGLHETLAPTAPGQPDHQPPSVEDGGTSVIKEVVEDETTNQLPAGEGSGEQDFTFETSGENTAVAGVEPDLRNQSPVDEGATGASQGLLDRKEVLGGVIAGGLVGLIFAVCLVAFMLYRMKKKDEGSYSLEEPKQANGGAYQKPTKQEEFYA
# B3: Syndecan-2 (Rattus norvegicus (Rat)), P34900 (parent)
# chain: B2 chain
# partner: B1 chain
# B4: Syndecan-1 (Rattus norvegicus (Rat)), P26260 (parent)
# chain: B2 partner
# partner: B2 chain
# B5: Syndecan-4 (Rattus norvegicus (Rat)), P34901 (parent)
# chain: B1 chain
# partner: B2 partner
# B6: Syndecan-2 (Rattus norvegicus (Rat)), P34900 (parent)
# chain: B2 chain
# B7: Syndecan-4 (Rattus norvegicus (Rat)), P34901 (parent)
# chain: B1 chain
# partner: B2 chain
# Variants of: B1
# Details: with sdc3_rat Sdc3, P33671
# Chain of sdc3_rat Sdc3, P33671 (P33671 whole entry): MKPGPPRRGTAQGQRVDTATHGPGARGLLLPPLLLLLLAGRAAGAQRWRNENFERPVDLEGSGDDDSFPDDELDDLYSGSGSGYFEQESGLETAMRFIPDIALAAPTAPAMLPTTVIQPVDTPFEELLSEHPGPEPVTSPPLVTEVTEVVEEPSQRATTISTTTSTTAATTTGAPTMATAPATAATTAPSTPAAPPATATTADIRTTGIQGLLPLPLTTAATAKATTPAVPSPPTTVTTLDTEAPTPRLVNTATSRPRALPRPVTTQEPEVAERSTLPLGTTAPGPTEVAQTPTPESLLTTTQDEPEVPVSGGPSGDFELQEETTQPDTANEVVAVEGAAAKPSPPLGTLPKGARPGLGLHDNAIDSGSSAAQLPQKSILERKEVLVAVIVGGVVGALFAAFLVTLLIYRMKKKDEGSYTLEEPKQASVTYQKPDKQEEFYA
row,effect of a mutation on the interaction,Variant
1,decreasing interaction strength,F164Y

# Variants of: B2
# Details: with sdc1_rat Sdc1, P26260
row,effect of a mutation on the interaction,Variant
1,with no effect,F162Y

# Variants of: B3
# Details: with sdc4_rat Sdc4, P34901
row,effect of a mutation on the interaction,Variant
1,with no effect,F162Y
2,disrupting interaction strength,F157Y
3,decreasing interaction strength,F159Y

# Variants of: B3
# Details: with sdc4_rat Sdc4, P34901
# Remark: another data set of the same source
row,effect of a mutation on the interaction,Variant
1,decreasing interaction,F159Y

# Variants of: B3
# Details: with sdc4_rat Sdc4, P34901
# Remark: another data set of the same source
row,effect of a mutation on the interaction,Variant
1,disrupting interaction strength,F159Y

# Variants of: B4
# Details: with sdc2_rat Sdc2, P34900
row,effect of a mutation on the interaction,Variant
1,disrupting interaction strength,F269Y;C272F
2,with no effect,C272F
3,disrupting interaction strength,F269Y

# Variants of: B5
# Details: with sdc1_rat Sdc1, P26260
row,effect of a mutation on the interaction,Variant
1,decreasing interaction strength,F164Y

# Variants of: B6
# Details: with sdc3_rat Sdc3, P33671
row,effect of a mutation on the interaction,Variant
1,decreasing interaction strength,F159Y

# Variants of: B7
# Details: with sdc2_rat Sdc2, P34900
row,effect of a mutation on the interaction,Variant
1,decreasing interaction strength,F164Y
